The source of these data is patent publication US20130052195A1 (EMERGENT PRODUCT DEVELOPMENT SEATTLE, published 2013).

The target of the test is T1, murine IL6 (murine, UniProt P08505 25-211).
T1 construct: also called mIL-6; mIL6
T1 sequence (looked up): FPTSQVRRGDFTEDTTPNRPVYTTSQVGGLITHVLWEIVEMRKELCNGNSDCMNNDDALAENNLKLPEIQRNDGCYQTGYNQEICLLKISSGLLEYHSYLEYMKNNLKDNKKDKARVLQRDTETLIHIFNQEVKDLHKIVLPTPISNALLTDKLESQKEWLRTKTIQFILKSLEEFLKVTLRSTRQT
Kind of test: not described (statement in Example 1).

B1: A2-XT6 (multi-target binding molecule with the TNFR extracellular domain (ECD) at the N-terminal end and the anti-hyperIL6 scFv at the carboxy-terminal end) (other)
chain: LPAQVAFTPYAPEPGSTCRLREYYDQTAQMCCSKCSPGQHAKVFCTKTSDTVCDSCEDSTYTQLWNWVPECLSCGSRCSSDQVETQACTREQNRICTCRPGWYCALSKQEGCRLCAPLRKCRPGFGVARPGTETSDVVCKPCAPGTFSNTTSSTDICRPHQICNVVAIPGNASMDAVCTSTSPTRSMAPGAVHLPQPVSTRSQHTQPTPEPSTAPSTSFLLPMGPSPPAEGSTGDTGEPKSSDKTHTCPPCPAPEAAGAPSVFLFPPKPKDTLMISRTPEVTCVVVDVSHEDPEVKFNWYVDGVEVHNAKTKPREEQYNSTYRVVSVLTVLHQDWLNGKAYACAVSNKALPAPIEKTISKAKGQPREPQVYTLPPSRDELTKNQVSLTCLVKGFYPSDIAVEWESNGQPENNYKTTPPVLDSDGSFFLYSKLTVDKSRWQQGNVFSCSVMHEALHNHYTQKSLSLSPGQRHNNSSLNTRTQKARHSPNSEVQLLESGGGLVQPGGSLRLSCAASGFTFSFYQMHWVRQAPGKGLEWVSGIYPSGGYTKYADSVKGRFTISRDNSKNTLYLQMNSLRAEDTAVYYCARDLGYGSSWYYFDYWGQGTLVTVSSGGGGSGGGGSGGGGSQSALTQPASVSGSPGQSITISCSGTDSDVGGYNHVSWYQQHPGKAPKLIIYDVDHRPSGISNRFSGSKSGNTASLTISGLQAEDEADYYCSSYRSGSTYVFGTGTKVTVL
notes: also called Zeu080a; TRU(XT6)-1002
In the case of B1, the binding result was “no binding”.
